These results are taken from article PMC5360572 (EBioMedicine, 2017).

The chains are these.
B1: mouse PD-1, wild type (soluble, monomeric) (domain or fragment, UniProt Q02242 25-169, looked up)
chain: LEVPNGPWRSLTFYPAWLTVSEGANATFTCSLSNWSEDLMLNWNRLSPSNQTEKQAAFCNGLSQPVQDARFQIIQLPNRHDFHMNILDTRRNDSGIYLCGAISLHPKAKIEESPGAELVVTERILETSTRYPSPSPKPEGRFQGM
notes: mouse PD-1, soluble monomeric form used as SPR analyte; the construct used here is not described; also called mPD-1; murine PD-1
B2: human PD-L2 Ig fusion protein (Fc fusion, UniProt Q9BQ51 20-220, looked up)
chain: LFTVTVPKELYIIEHGSNVTLECNFDTGSHVNLGAITASLQKVENDTSPHRERATLLEEQLPLGKASFHIPQVQVRDEGQYQCIIIYGVAWDYKYLTLKVKASYRKINTHILKVPETDEVELTCQATGYPLAEVSWPNVSVPANTSHSRTPEGLYQVTSVLRLKPPPGRNFSCVFWNTHVRELTLASIDLQSQMEPRTHPT
notes: characterized by SEC prior to use; also called huPD-L2; B7-DC; source: bought: R&D Systems

The target in assay [1] is human mature dendritic cells expressing PD-L1 and PD-L2.
The target in assay [2] is T1, human PD-L1 Ig fusion protein (human, UniProt Q9NZQ7 19-238).
T1 construct: characterized by SEC prior to use; detected on cells with anti-human IgG Fcγ-specific F(ab')2; also called huPD-L1; B7-H1; source: bought: R&D Systems
The assay is described as follows: SPR; BIAcore 3000, 25 °C; PD-L1-Ig or PD-L2-Ig immobilized on CM5 chip by amine coupling; soluble monomeric PD-1 or mutants (0.01–100 μM) injected at 20 μl/min; equilibrium Kd, 1:1 Langmuir model. The following applies: both partners purified. A general note: SPR reads the build-up and loss of mass on a sensor chip optically.

Assay [3] addresses B2. The description is as above. As to conditions: both partners purified.
Assay [4] concerns the target T2, full-length human PD-1 I126A, on HEK293 cells (human, UniProt Q15116 25-288, I126A).
T2 construct: Gateway pEF5/FRT/V5-DEST destination vector; source: HEK293, transiently transfected, on the cell surface
The assay is described as follows: flow cytometry on cells; HEK293 cells transiently transfected with full-length wild type or mutant human PD-1, incubated with PD-L1 or PD-L2 Ig fusion proteins (0.01–50 μg/ml) for one hour on ice; APC anti-human IgG F(ab')2 Fcγ specific; MFI normalized to wild type PD-1 binding; relative binding at 0.5 μg/ml ligand. The following applies: one partner purified. On the technique in general: In flow cytometry, cells or beads pass a laser one at a time.

T1 sequence (Q9NZQ7 19-238): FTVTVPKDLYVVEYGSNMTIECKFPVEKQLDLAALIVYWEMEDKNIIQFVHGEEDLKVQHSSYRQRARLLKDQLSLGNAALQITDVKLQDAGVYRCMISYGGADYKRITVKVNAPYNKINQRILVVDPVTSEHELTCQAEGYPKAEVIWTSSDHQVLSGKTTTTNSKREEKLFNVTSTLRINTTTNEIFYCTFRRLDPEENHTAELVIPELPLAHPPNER
T2 sequence (Q15116 25-288 I126A): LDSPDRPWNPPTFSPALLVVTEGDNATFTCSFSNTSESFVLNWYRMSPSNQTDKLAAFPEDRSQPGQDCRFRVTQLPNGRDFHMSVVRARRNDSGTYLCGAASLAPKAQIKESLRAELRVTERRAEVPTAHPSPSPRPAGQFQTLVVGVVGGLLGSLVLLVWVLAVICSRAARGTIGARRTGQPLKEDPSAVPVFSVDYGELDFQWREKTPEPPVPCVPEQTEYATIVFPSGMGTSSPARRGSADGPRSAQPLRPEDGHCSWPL

On to “high-affinity human PD-1 (A132L) Ig fusion protein (from UniProt Q15116 25-170) (Fc fusion)”, for which, in assay [1], the T cell proliferation (3H-thymidine uptake) in allogeneic MLR with dendritic cells pre-treated with HA PD-1 Ig (0.5–5 μg/ml), against untreated control is greater than 50%; the production of IFN-γ and IL-12p70 in allogeneic MLR, against untreated control (no Ig) is greater than 6 fold.
On to B1, for which the figures for the Kd in assay [2] and in assay [3] were 4.02 µM and 10.7 µM, respectively.
Consider B2, for which, in assay [4], the “reduction of binding relative to wild type PD-1” value was 50%.

In general, Kd refers to a measure of binding affinity in units of concentration.
